Experimental data: US20100150834A1 (BURNHAM INSTITUTE, published 2010)
No end group written: not given here.

Assays:
[1] = biological target: T1, EphB4 (receptor of Table 1) (Mus musculus (Mouse), UniProt P54761 16-539); assay: inhibition of ephrin-B2 AP binding to EphB4 (panning receptor); non-biotinylated peptide
T1 sequence: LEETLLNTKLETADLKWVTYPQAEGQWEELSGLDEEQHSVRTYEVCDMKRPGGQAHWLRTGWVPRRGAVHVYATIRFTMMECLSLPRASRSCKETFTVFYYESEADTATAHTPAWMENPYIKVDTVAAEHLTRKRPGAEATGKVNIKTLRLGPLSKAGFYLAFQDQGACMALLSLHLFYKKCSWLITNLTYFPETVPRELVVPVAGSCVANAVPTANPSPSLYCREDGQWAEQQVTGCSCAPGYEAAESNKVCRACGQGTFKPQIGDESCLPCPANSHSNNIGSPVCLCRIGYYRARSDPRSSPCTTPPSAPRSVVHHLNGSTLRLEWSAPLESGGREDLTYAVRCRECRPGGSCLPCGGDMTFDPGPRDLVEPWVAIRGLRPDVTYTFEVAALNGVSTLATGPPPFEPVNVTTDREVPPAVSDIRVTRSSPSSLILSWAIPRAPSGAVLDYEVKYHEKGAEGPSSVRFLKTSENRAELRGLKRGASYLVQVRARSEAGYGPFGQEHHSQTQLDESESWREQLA

[2] = biological target: EphB6 (receptor of Table 1); assay: EphB receptor specificity panel (% binding)
[3] = biological target: T1, EphB4 (receptor of Table 1); assay: EphB receptor specificity panel (% binding)
[4] = biological target: EphB1 (receptor of Table 1); assay: EphB receptor specificity panel (% binding)
[5] = biological target: EphB2 (receptor of Table 1); assay: EphB receptor specificity panel (% binding)
[6] = biological target: EphB3 (receptor of Table 1); assay: EphB receptor specificity panel (% binding)
[7] = biological target: EphB2 (receptor of Table 1); assay: inhibition of ephrin-B2 AP binding to EphB2 (panning receptor)
[8] = biological target: EphB1 (receptor of Table 1); assay: inhibition of ephrin-B2 AP binding to EphB1 (panning receptor); biotinylated and non-biotinylated peptide gave the same result
Target sequence in this assay (Q8CBF3 18-540): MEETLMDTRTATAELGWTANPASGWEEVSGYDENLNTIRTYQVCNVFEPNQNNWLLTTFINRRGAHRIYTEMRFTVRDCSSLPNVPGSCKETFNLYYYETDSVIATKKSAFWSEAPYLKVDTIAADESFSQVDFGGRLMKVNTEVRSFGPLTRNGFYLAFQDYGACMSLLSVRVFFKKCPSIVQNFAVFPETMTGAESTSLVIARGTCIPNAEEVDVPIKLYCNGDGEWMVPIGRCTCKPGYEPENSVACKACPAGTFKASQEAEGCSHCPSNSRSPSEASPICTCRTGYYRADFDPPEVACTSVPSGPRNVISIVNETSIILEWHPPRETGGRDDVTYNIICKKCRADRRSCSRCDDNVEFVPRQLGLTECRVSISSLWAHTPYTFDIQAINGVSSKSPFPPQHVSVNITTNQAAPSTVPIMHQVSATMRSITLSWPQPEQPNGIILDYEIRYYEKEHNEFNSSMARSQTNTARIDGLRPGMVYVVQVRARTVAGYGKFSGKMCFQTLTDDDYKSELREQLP

[9] = biological target: T2, murine EphB4-Alkaline Phosphatase (murine, UniProt P54761 16-539); assay: competition ELISA: murine EphB4-AP binding to immobilised murine ephrin-B2-Fc
T2 construct: also called EphB4-AP; EphB4 AP; not shown: alkaline phosphatase
T2 sequence (looked up): T1 sequence

murine EphB4 ectodomain = biological target: T3, murine EphB4 ectodomain (murine, UniProt P54761 16-539); assay: inhibition of murine ephrin-B2 AP binding to immobilised murine EphB4 ectodomain
T3 construct: extracellular domain; Coated on wells; also called immobilized EphB4 receptor ectodomain
T3 sequence (looked up): T1 sequence

[10] = biological target: T1, EphB4 (receptor of Table 1); assay: inhibition of ephrin-B2 AP binding to EphB4 (panning receptor); biotinylated peptide
[11] = biological target: T2, murine EphB4-Alkaline Phosphatase; assay: ELISA binding curve: ephrin-B2 Fc immobilised, increasing volumes of murine EphB4 AP, OD405; one experiment
[12] = biological target: EphB2 (receptor of Table 1); assay: inhibition of ephrin-B2 AP binding to EphB2 (panning receptor); biotinylated and non-biotinylated peptide gave the same result
[13] = biological target: EphB1 (receptor of Table 1); assay: inhibition of ephrin-B2 AP binding to EphB1 (panning receptor)
Target sequence in this assay (Q8CBF3 18-540): as above

[14] = biological target: T1, EphB4 (receptor of Table 1); assay: inhibition of ephrin-B2 AP binding to EphB4 (panning receptor); limited by solubility

Binder: TNYLFSPNGPIA (Panned on EphB4; non-biotinylated form) [TNYLFSPNGPIA peptide (SEQ ID NO:24)]
- IC50 [1]: 150 µM
- % Binding [2]: 7%
- % Binding [3]: 100%
- % Binding [4]: 5%
- % Binding [5]: 3%
- % Binding [6]: 3%

Binder: DHWRILPFSLSS (Panned on EphB2) [DHWRILPFSLSS peptide (SEQ ID NO:10)]
- IC50 [7]: > 100 µM
- % Binding [2]: 3%
- % Binding [3]: 1%
- % Binding [4]: 53%
- % Binding [5]: 100%
- % Binding [6]: 4%

B1: EWLSPNLAPSVR peptide (SEQ ID NO:1) (peptide)
peptide: EWLSPNLAPSVR
notes: Panned on EphB1; Footnote e: biotinylated and non-biotinylated peptides gave the same IC50
- IC50 [8]: ~10 µM
- % Binding [2]: 0%
- % Binding [3]: 1%
- % Binding [4]: 100%
- % Binding [5]: 2%
- % Binding [6]: 1%

Binder: TNYLFSPNGPIARAW (Synthetic, not biotinylated) [TNYL-RAW peptide TNYLFSPNGPIARAW (SEQ ID NO:39)]
- IC50 [9]: 0.016 µM
- IC50 (murine EphB4 ectodomain): ~0.04 µM

B2: biotinylated TNYLFSPNGPIA peptide (SEQ ID NO:24) (peptide)
peptide: TNYLFSPNGPIA
modifications: also: biotin, position not given here
notes: Footnote g: the ~50 µM value was obtained with the biotinylated peptide
- IC50 [10]: ~50 µM

B3: ephrin-B2 Fc (Example 7) (Fc fusion, not shown: a dimerising Fc or GST; small tags and cut ends)
chain: RSIVLEPIYWNSSNSKFLPGQGLVLYPQIGDKLDIICPKVDSKTVGQYEYYKVYMVDKDQADRCTIKKENTPLLNCARPDQDVKFTIKFQEFSPNLWGLEFQKNKDYYIISTSNGSLEGLDNQEGGVCQTRAMKILMKVGQDASSAGSARNHGPTRRPELEAGTNGRSSTTSPFVKPNPGSSTDGNSAGHSGNNLLGSEVALFA
notes: also called ephrin B2 Fc protein; ephrin B2 Fc fusion protein
- Kd [11]: 0.0006 µM

Binder: SHWPISPYSLLS (Panned on EphB2) [SHWPISPYSLLS peptide (SEQ ID NO:14)]
- IC50 [7]: > 100 µM
- % Binding [2]: 8%
- % Binding [3]: 4%
- % Binding [4]: 39%
- % Binding [5]: 100%
- % Binding [6]: 9%

B4: SNEWIQPRLPQH peptide (SEQ ID NO:18) (peptide)
peptide: SNEWIQPRLPQH
notes: Panned on EphB2; Footnote e: biotinylated and non-biotinylated peptides gave the same IC50
- IC50 [12]: ~15 µM

Binder: AHTFPYPHPKPH (Panned on EphB1) [AHTFPYPHPKPH peptide (SEQ ID NO:3)]
- % Binding [2]: 0%
- % Binding [3]: 1%
- % Binding [4]: 100%
- % Binding [5]: 4%
- % Binding [6]: 8%
- IC50 [13]: ~150 µM

Binder: WHWTIEPFAITS (Panned on EphB2) [WHWTIEPFAITS peptide (SEQ ID NO:8)]
- IC50 [7]: > 100 µM
- % Binding [2]: 45%
- % Binding [3]: 20%
- % Binding [4]: 99%
- % Binding [5]: 100%
- % Binding [6]: 22%

Binder: TYFDFQAWSIRA (Panned on EphB4) [TYFDFQAWSIRA peptide (SEQ ID NO:22)]
- IC50 [14]: > 50 µM
- % Binding [2]: 30%
- % Binding [3]: 100%
- % Binding [4]: 10%
- % Binding [5]: 21%
- % Binding [6]: 18%
